Experimental data: article PMC4951691

How the values were obtained:
[1] = target: Cryptococcus neoformans Golgi Reassembly and Stacking Protein (CnGRASP) (Cryptococcus neoformans); assay: dynamic light scattering; Nano-ZS, 20 °C, 25 mM Hepes/NaOH, 150 mM NaCl, 1 mM beta-mercaptoethanol, 10% glycerol, pH 7.4; mass worked out from the Rh of 3.9 nm
[2] = target: Cryptococcus neoformans Golgi Reassembly and Stacking Protein (CnGRASP) (Cryptococcus neoformans); assay: SEC; Superdex 200 (HR 10/30), Akta purifier; hydrodynamic radius from the partition coefficient against standard proteins (calibration kit LMW/HMW); CHAPS left out of the protein preparation
[3] = target: Cryptococcus neoformans Golgi Reassembly and Stacking Protein (CnGRASP) (Cryptococcus neoformans); assay: SEC + other: zone sedimentation in a sucrose gradient; Siegel and Monte model: Rh from SEC combined with the sedimentation coefficient (about 4.2 S) from a 10 to 35% sucrose gradient in 25 mM Hepes/NaOH, 150 mM NaCl, pH 7.4; CnGRASP less than 1 mg/mL; 100,000 g for 4 h at 4 °C

Measured: stoichiometry N

Cryptococcus neoformans Golgi Reassembly and Stacking Protein (CnGRASP) (natural protein)
2: all assays above
